Experiments:
[1] = molecular target: T1, human CTLA4 expressed on HEK293-CTLA4 cells (human, UniProt P16410 36-223); assay: flow cytometry on HEK293-CTLA4 cells, MFI, four-parameter fit
T1 construct: whole, on cells; also called human CTLA4 on the cell surface
Procedure: 3% of BSA/PBS was used to adjust the density of HEK293-CTLA4 cells to 3×10⁶ cells/ml.
Then, APC-goat anti-mouse IgG at a dilution of 1:100 was used, and placed on ice for 30 min for reaction. After that, they were washed with 1% of BSA/PBS and resuspended, and then detected on a FACS machine (using a Guava EasyCyte instrument).
The flow cytometry results were analyzed by Guava 5.3.1 to calculate the mean fluorescence intensity (MFI) of the detected samples. The log values of the obtained MFI versus the concentrations of the samples were calculated, and the experimental results were fit with four parameters using GraphPad Prism 6.0.

[2] = molecular target: CTLA4-muFc (fusion protein of human CTLA4 and mouse Fc) (human); assay: competitive flow cytometry; taken as CTLA4-muFc with human CD86 on HEK293-CD86 cells as the blocked ligand, from the order of paragraph 274 and paragraph 275; the panel has no title
[3] = molecular target: T1, human CTLA4 expressed on HEK293-CTLA4 …; assay: competitive flow cytometry; taken as HEK293-CTLA4 cells with CD86-muFc as the blocked ligand, from the order of paragraph 274 and paragraph 275; the panel has no title

EC50 [1]: 2.01 nM
IC50 (read off the curve) [2]: ~10 nM
IC50 (read off the curve) [3]: ~8 nM
B1: KN044 (VHH)
VHH: QVQLVESGGGLVQPGGSLRLSCAASGYIYSAYCMGWFRQAPGKGLEGVAAIYIGGGSTYYADSVKGRFTISRDNSKNTLYLQMNSLRAEDTAVYYCAADVIPTETCLGGSWSGPFGYWGQGTLVTVSS
